Assay results taken from the DeepSol protein solubility set.

Assay: soluble on expression in E. coli; label from the status in PepcDB or PDB records
With “MSLNREFDVTAPNQVWCGDITYIWAQGKWHYLAVVMDLYARRVLGWAFSKKSDTDLVIKALDMAYEQRGKPQGLLFHSDQGAQYGSRQFRKRLWRYRVRQSMSRRGNCYDNSPMARVFRSLKTEWIPAVGYMTAQEAQGDISHYLMHRYNRVRPHQFNDGLAPAQYEKTLTSEGHHHHHH” the “soluble on expression in E. coli” value was “not soluble”.
In the case of “MAKGASISGFPEWLPSERVVEQRVIDTLRNVFELNGFIGIETRAVEQGSSLLKKGETSKEIYLLSRLQEVGHESDTPIEDRLGLHFDLTVPLSRYVVEHSGDLAFPFKRWQIQKVWRGERPQEGRFREFVQADIDVIGNGDLPDHYEVELPLVMVSALERLREFGLPKATVHANNRKLSEGFYRGLGLTDIEGVLREIDKLDKIGADEVAKLLVEGCGADEAQARACLELAELTAADGKELSDKFDALCAKHDIASDSDAYVLARQGLDTLAMIVDEAARIRPGSVIADLKIARGLDYYTGSVYETFLDGAAALGSICSGGRYDNLASQGNKKYPGVGLSIGLSRLVSYMLHTAGAHANRVSPASVLVAVWNEADRSASNLIANQLRSRGIAADVAPTAAKLGKQIKYADKLGIPYVWFPADASEEGAQDEVKNIITGDQRPADAQSWEPDTVYAQQTVTVEA”, the “soluble on expression in E. coli” value was “soluble”.
With “VRVLSYDKEKLNWLYKDPQGLVQGPFSLTQLKAWSDAEYFTKQFRVWMTGESMESAVLLTDVLRL” the “soluble on expression in E. coli” value was “soluble”.
In the case of “RAPDLAGVPDCLVIVGGSMAAVKAPTALRRLREGGASTAVIATRAALAFITPLSLATAGNCEVATDETWFAPQPIAQHLSLARARVTVVLGASAELLAAAAHGHADTLATATLLSAEGQVLWVPAMNERMWLHPAVQANAERLRGWGHLFLGPETGAFGTPGEGSGTGRMAEPEAIAARALALLNEQDAEAEAAPQDLAGLKVV”, the “soluble on expression in E. coli” value was “not soluble”.
With “MGSDKIHHHHHHMQLSHSLRLMGTTIDIQINSKNAQKQIREVIELLELYKNRFSANDFNSELMAINNNAGIKPIQVHPDLFELITIGKEHSLARPSNLNIAIGPLVQTWRIGFSDAKLPSPSEISEAMILSDPTHILLDSNKQSVFLNQIGMKIDLGALAKGYIADKIMTYLKNEMIDSAIINLGGNVLVHGDNPNRSEGYWVIGIQHPKKKRGKNIGTVKIKNQSVVTSGTYERRLIIDDKEYHHIFDRQTGYPIQTEMASISIVSKQSVDCEIWTTRLFGLSIKEALDILNAVSYIEGIIITKDDRIYLSDGLKHHFQLFYH” the “soluble on expression in E. coli” value was “not soluble”.
For “GPLGSETITVPTPIKQIFSDDAFAETIKDNLKKKSVTDAVTQNELNSIDQIIANNSDIKSVQGIQYLPNVTKLFLNGNKLTDIKPLANLKNLGWLFLDENKVKDLSSLKDLKKLKSLSLEHNGISDINGLVHLPQLESLYLGNNKITDITVLSRLTKLDTLSLEDNQISDIVPLAGLTKLQNLYLSKNHISDLRALAGLKNLDVLELFSQECLNKPINHQSNLVVPNTVKNTDGSLVTPEIISDDGDYEKPNVKWHLPEFTNEVSFIFYQPVTIGKAKARFHGRVTQPLKE”, the “soluble on expression in E. coli” value was “soluble”.
In the case of “MSMLQRPGYPNLSVKLFDSYDAWSNNRFVELAATITTLTMRDSLYGRNEGMLQFYDSKNIHTKMDGNEIIQISVANANDINNVKTRIYGCKHFSVSVDSKGDNIIAIELGTIHSIENLKFGRPFFPDAGESIKEMLGVIYQDRTLLTPAINAINAYVPDIPWTSTFENYLSYVREVALAVGSDKFVFVWQDIMGVNMMDYDMMINQEPYPMIVGEPSLIGQFIQELKYPLAYDFVWLTKSNPHKRDPMKNATIYAHSFLDSSIPMITTGKGENSIVVSRSGAYSEMTYRNGYEEAIRLQTMAQYDGYAKCSTIGNFNLTPGVKIIFNDSKNQFKTEFYVDEVIHELSNNNSVTHLYMFTNATKLETIDPVKVKNEFKSDTTTEESSSSNKQ”, the “soluble on expression in E. coli” value was “soluble”.
For “MTPAELKRLYHIIKVQLEYGLDELLPDHQLTKAPLLMRKSLFWIKNQHPEKPLGERLRLALQELGPVWIKFGQMMSTRRDLFPPHIADPLALLQDQVAPFDGELAKQQMEKALGGPLENWFTEFDIKPLEHHHHHH”, the “soluble on expression in E. coli” value was “not soluble”.
For “GSHSLRYFYTAVSRPGLGEPWFIIVGYVDDMQVLRFSSKEETPRMAPWLEQEEADDWEQQTHIVTIQGQLSERNLMTLVHFYNKSMDDSHTLQWLQDCDVEPDRHLCLWYNQLAYDSEDLPTLSENPSSCTVGNSTVPQISQHLEGHCSDVLQKYLEKGKERLLRSDPPKAHVTRHPRPEGDVTLRCWALGFYPADITLTWQKDGEELTQDVEFVETRPAGDGTFQKWAAVVVPLGKVQSYTCHVDHEGLPEPLTLRWEP”, the “soluble on expression in E. coli” value was “soluble”.
In the case of “MGSDKIHHHHHHLIYIYYPELRLFNGDEITQKFVKGEVVEAHEVLRLKHSIATYRSRLCDISWFMRCLNEPIARQANQEDSCTGRFWEGRFKSQALLDEAAVLACMAYVDLNPIRAKMASTPEQSDHTSIQLRIRAALKGEQPNNLLPFIGNERQFQPKGITFALKDYLELVDDTGRIIRNDKRGSVSANSAKLLTRLNISQENWLKLTTEFGKLFHGPVGTLQELTSYCEHLEKRRRHFASCCQHLKAG”, the “soluble on expression in E. coli” value was “not soluble”.
In the case of “MGSDKIHHHHHHMATNSSTEQSLTKKVWNLATTLAGQGIGFTDYITQLTYLLFLKMDAENVEMFGEESAIPTGYQWADLIAFDGLDLVKQYEETLKLLSELDNLIGTIYTKAQNKIDKPVYLKKVITMIDEEQWLIMDGDVKGAIYESILEKNGQDKKSGAGQYFTPRPLIQAMVDCINPQMGETVCDPACGTGGFLLTAYDYMKGQSASKEKRDFLRDKALHGVDNTPLVVTLASMNLYLHGIGTDRSPIVCEDSLEKEPSTLVDVILANPPFGTRPAGSVDINRPDFYVETKNNQLNFLQHMMLMLKTGGRAAVVLPDNVLFEAGAGETIRKRLLQDFNLHTILRLPTGIFYAQGVKANVLFFSKGQPTKEIWFYDYRTDIKHTLATNKLERHHLDDFVSCYNNRVEIYDAENNPQGRWRKYPVDEIIARDKTSLDITWIKPGGEVDDRSLAELMADIKDKSQTISRAVTELEKLLANIEEN”, the “soluble on expression in E. coli” value was “not soluble”.
In the case of “IKDFNYGVKFVLSDDQRKVTRYPNEELNRNQWYAGRMDGLVWGYETVGIAKTDAEMEAHLASLPNGGQSQLGSKWAAGDIMYKDLNGDGKISSGDGTLNDLGDLKVVANTQLRFKYGLTLDASWKGFDFSAFFQGVGKRDVVVGGPYFWGANGQGMWQAAAFKDHMDYFRPEDTESVFGPNVDAYYPRVIFGGGSSEGGKNTLTQSRYVQNGAYIRLKNLQLGYTLPSTITKKFAVNSLRVYVSGDNLWTGTKMRVFDPEVLGSTGDAGKAYPLARVWSVGLNVNF”, the “soluble on expression in E. coli” value was “not soluble”.
For “MIHQFHSEQQFRSLGMCVVSTFGSGRACTFIGALYAIHQLNNGVEPNIFEIMKTIKQQRPGAIESFPQYSGVYAIVLDYISRKRGGKSDPVNKYINRFLADLTEILPACSTLPVMNPSTELH”, the “soluble on expression in E. coli” value was “not soluble”.
In the case of “GAMDGNMKEVTQLPEPQTASLAELQQMKLFLKLLKKQEKELKELERKGSKRREELLQKYSVLFLEPVYPRGLDSQVVELKERLEMELIHLGEEYHDGIRRRKEQHATEQTAKITELAREKQIAELKALKESSESNIKDIKKKLEAKRLDRIQVMMRSTSDKAAQERLKKEINNSHIQEVVQTIKLLTEKTARYQQKLEEKQAENLRAIQEKEGQLQQEAVAEYEEKLKTLTVEVQEMVKNYMKEVFPDGPE”, the “soluble on expression in E. coli” value was “soluble”.
With “MSLAQPCAIIDLETTGGNIARDRITEVGMVLIDGERVERLSWLVNPGQPIPPFIENMTGISNEMVAGAPPFSAQADELLDRLQGRLLLAHNARFDYGFLKNEFRRHGLRFQARALCTVKLSRRLYPQHFKHSLDSLIARHGIDMPERHRALADAEAVYRFIRIAEAELGEDRVAHEAAQLLSQPAELSSLPAELQQQIEEGHHHHHH” the “soluble on expression in E. coli” value was “not soluble”.
In the case of “MRLEIPNHTERFGVVRLHEVQRILELDSGRVRDESPAVGLRRLDDADLRDVLEQTAIVVPTRNERLKLLEGVLSGIPHEALILVASNSSPDRFQMERDLLEEFAHLTERPALIFHQKDPALAEALRAGGYPHPIGEDGLVRSGKAEGMILALVFAALSGRRYVGFIDADNYFPGAVWEYVRAYAAGFLMAKTPFAMVRILWRYKPKLTEDEGVVFRRYGRVSERNNRALNQLIGGVSGFETDVVKTANAGEHAMSLGLALRLPLASGYAVEPQELVSLLELYGGVFPLEDEEVLQHGVEIFQIETRNPALHENKGDEHIRDMLLACLATVYHSKLATEEVRQSVLEELQAAGALAPGEEPPPPVLYPPLSSLDLQAVRKALRGHFSRFRVP”, the “soluble on expression in E. coli” value was “soluble”.
With “GETLDGEAALQAAIARLAAGDIVAIKGIGGFHLACDAGNPAAVATLRARKHRPAKPLAVMLPTATGLPAAAAALMGSPAAPIVLIAKAQVSGLCDEIAPGLAEVGVMLPSNPLQHLLLQGLARPIVMTSGNLSGRPPALSNAQALNELADIADGFLLHNRDIVQRMDDSLVRSSGEMLRRARGYVPDALPL” the “soluble on expression in E. coli” value was “not soluble”.
With “MSLRNDAYSTLRVSSEHGVARIILDNPPVNVIGATMMRELRTVLTTLADDSSVRVIVFSSADPEFFLAHVDMRIGEKMDALQELAASAPADVNVFQAVGELIRHQPQVTIVKLAGKARGGGAEFVAAADMAFAAAETAGLGQIEALMGIIPGGGGTQYLRGRVGRNRALEVVLTADLFDAETAASYGWINRALPADELDEYVDRVARNIAALPDGVIEAAKRSLPADDLKEGLLGENDAWAATFSLPAAQQLISGGLKDGAQTPAGERDLEGLMRSVAREGHHHHHH” the “soluble on expression in E. coli” value was “soluble”.
For “MFKVDRYFDLTAPIYPYMPVWPSNPPVELKPIVTVPKDGYLAEIIEASTHTGTHIDAPAHMIEGGTTVDDLDLASLIGTGYCLKVLPDGHTIRSTHLAEKWQGIYNNSILLIETGWYKKRGYTREFQYDFPGLSEDAADFLIQKHVKAVGIDTLGIEPYENTDFRVHKKLLRSGIPIIEDLYGLDSLEEGRPYLIIALPLRLKGTSGSMARVVAAETELEHHHHHH”, the “soluble on expression in E. coli” value was “not soluble”.
For “MGSDKIHHHHHHMHYPPMIATTLPDGPEQTPLTAEIVLRYHLCWKHRDLDGVMALYHPDIQYHDFFQNRVLGHQELRDYVRACLPHEAGEDIVHSDRIRVDGSTAFIQYQVTVQGGDGLVAFQSSEAITVRDGLIWRVNEYATLVRQNGTGHANSGPRPATSRLGLSPRQLSTMAQDLEHYFRRQRPYLDPELDLQQVADASGYSRNQISYLLNQVLGQSFYRYVNQARLQHLMASLGDDSVEATIDELAFSAGFNSLSAFYKCFREHTGFTPKAYLKQISLRART”, the “soluble on expression in E. coli” value was “not soluble”.
In the case of “MGSDKIHHHHHHAEDMVKPIENDKDAPGTVQDVKTESLPGAVKFTYTLPSDPDLLYVLAKYTNKTGKVMEFRSSFYTNSVTVEGFGDTDTYKVELYTVDRSENRSQPQIVEVVPLTPPILSCYESLSMVSDFGGMTFEMDNKFKSDLAIYVCTPDELGDMVLAETFYSAREEIVYSVRGYDAVPRRFGIFLQDKYGNETDTLFTELTPIYERELDKTKFREMYLQNDSRVDSYDGKMEYVWNGRISKDGDSGGVGLHTGTGTKDGPAVFTFDLGVLAKLSRFALWAIQDEKHFYNDMSPRRYEVWGCATEPNPDGSWDQWVKLLDMENVKPSGSPIGILTEDDIEAAKIGDQANVPLDMPRVRYIRIKCLKNWSNNYNICFTELTFWGNDNEE”, the “soluble on expression in E. coli” value was “not soluble”.
For “MHHHHHHGSKFKGSTFGRLVRIEFDILRLGELKIDDLSEFDTSEIKLEIKATSSGIKLVGVWEGDIEKVGEAIKKALEESIKLRERILRKMKSKVERIRKALLEMGFREEQFGYGEAVKFVKKVGDFEIAIIVSSREDIVRVEVYGEGNRKIIAPELEAFFESVDIEEIEVYDIEEEGREEKVVINLELPKSDEKPEKRITEAVKILENILMA”, the “soluble on expression in E. coli” value was “soluble”.
For “MGSDKIHHHHHHMREIAASRISAVLAELIVKISTELGEDILTALHKAYEAEESPAGRDILQSLLENARIAKEKKIPLCQDTGTAIVFAEVGQEVHVTGNFTDAINLGVRQGYEQAYLRKSIVSHPFSKRINTNDNTPAVIHTEIVPGDRLKISFMAKGSGAENMSRLFMLKPGVGREGVIEAVLETVEKAGGSPCPPIIIGLGVGATAEKAMFMAKKALLRPLGITHTDPEVAALETEVLKQVNKLGIGPLGLGGRVTALGVMAETAPTHIASLPVAVNLQCHSARHGEAVL”, the “soluble on expression in E. coli” value was “not soluble”.
